B1: Speckle-type POZ protein (Homo sapiens), O43791 (parent)
chain: MSRVPSPPPPAEMSSGPVAESWCYTQIKVVKFSYMWTINNFSFCREEMGEVIKSSTFSSGANDKLKWCLRVNPKGLDEESKDYLSLYLLLVSCPKSEVRAKFKFSILNAKGEETKAMESQRAYRFVQGKDWGFKKFIRRDFLLDEANGLLPDDKLTLFCEVSVVQDSVNISGQNTMNMVKVPECRLADELGGLWENSRFTDCCLCVAGQEFQAHKAILAARSPVFSAMFEHEMEESKKNRVEINDVEPEVFKEMMCFIYTGKAPNLDKMADDLLAAADKYALERLKVMCEDALCSNLSVENAAEILILADLHSADQLKTQAVDFINYHASDVLETSGWKSMVVSHPHLVAEAYRSLASAQCPFLGPPRKRLKQS
partner: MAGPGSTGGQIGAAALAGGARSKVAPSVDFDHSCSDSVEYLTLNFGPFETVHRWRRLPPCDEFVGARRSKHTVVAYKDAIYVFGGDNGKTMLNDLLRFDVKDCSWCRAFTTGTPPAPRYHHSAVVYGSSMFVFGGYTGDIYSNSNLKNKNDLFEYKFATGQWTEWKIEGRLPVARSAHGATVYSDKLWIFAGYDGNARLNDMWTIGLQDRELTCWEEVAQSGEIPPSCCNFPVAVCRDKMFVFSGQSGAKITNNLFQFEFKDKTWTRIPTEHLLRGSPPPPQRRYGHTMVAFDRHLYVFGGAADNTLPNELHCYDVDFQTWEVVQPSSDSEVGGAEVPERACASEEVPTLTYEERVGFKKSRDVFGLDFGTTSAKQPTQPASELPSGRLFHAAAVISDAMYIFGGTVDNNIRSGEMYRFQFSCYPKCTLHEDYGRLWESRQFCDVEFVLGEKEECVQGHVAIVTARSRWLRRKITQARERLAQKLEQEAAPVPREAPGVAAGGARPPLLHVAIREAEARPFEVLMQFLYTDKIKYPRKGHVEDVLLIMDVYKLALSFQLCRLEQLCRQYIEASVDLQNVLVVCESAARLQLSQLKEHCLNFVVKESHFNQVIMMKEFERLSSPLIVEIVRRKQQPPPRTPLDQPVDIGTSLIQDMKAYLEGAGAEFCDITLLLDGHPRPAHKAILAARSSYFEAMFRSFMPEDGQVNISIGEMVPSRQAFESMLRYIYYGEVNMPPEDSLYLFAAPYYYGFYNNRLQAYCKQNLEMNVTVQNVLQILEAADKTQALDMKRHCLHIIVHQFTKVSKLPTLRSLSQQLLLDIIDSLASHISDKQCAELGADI
B2: Speckle-type POZ protein (Homo sapiens), O43791 (parent)
chain: B1 chain
partner: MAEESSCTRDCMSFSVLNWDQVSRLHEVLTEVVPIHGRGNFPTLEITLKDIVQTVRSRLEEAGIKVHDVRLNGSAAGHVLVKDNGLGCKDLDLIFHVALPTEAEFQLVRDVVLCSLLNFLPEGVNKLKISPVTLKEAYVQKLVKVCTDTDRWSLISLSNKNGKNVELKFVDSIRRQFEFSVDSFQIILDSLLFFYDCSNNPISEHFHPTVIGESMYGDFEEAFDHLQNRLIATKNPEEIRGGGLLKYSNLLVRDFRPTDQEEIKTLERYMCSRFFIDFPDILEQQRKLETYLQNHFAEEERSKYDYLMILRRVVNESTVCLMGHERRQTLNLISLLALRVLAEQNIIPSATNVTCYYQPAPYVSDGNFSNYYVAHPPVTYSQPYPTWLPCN
B3: Speckle-type POZ protein (Homo sapiens), O43791 (parent)
chain: B1 chain
partner: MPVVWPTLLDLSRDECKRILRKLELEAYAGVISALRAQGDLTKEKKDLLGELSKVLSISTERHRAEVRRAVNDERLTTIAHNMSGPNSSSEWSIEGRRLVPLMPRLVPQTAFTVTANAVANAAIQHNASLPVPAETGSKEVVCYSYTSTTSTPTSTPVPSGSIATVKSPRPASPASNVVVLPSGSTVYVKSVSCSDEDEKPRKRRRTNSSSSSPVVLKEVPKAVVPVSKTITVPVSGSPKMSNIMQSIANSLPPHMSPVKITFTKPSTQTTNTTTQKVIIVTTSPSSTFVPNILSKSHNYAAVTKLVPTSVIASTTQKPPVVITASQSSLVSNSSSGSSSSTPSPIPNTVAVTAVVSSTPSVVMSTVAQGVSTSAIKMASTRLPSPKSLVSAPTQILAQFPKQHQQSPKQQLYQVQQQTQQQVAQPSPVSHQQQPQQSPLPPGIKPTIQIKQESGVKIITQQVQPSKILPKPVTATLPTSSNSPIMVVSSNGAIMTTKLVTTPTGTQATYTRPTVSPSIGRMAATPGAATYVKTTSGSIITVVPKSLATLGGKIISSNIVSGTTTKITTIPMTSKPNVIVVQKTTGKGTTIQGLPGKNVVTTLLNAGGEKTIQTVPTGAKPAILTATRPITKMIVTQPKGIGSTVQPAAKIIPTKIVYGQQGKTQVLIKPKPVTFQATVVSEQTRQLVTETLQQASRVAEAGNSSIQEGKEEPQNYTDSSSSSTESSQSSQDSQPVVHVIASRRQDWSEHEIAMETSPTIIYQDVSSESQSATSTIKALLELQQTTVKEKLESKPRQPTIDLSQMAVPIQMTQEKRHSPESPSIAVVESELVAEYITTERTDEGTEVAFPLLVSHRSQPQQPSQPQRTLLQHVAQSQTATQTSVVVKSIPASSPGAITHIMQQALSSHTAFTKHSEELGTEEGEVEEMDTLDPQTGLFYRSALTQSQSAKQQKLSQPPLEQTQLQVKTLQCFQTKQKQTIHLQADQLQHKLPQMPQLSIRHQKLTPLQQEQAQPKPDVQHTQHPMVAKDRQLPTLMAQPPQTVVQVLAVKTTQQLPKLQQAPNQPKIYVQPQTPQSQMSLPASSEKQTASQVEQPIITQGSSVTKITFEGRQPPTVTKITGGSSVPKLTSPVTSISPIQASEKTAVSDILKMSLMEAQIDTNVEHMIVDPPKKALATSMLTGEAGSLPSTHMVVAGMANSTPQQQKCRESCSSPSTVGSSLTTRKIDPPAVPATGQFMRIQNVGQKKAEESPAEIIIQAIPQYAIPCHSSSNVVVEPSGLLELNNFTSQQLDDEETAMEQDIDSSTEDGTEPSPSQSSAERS
B4: Speckle-type POZ protein (Homo sapiens), O43791 (parent)
chain: B1 chain
partner: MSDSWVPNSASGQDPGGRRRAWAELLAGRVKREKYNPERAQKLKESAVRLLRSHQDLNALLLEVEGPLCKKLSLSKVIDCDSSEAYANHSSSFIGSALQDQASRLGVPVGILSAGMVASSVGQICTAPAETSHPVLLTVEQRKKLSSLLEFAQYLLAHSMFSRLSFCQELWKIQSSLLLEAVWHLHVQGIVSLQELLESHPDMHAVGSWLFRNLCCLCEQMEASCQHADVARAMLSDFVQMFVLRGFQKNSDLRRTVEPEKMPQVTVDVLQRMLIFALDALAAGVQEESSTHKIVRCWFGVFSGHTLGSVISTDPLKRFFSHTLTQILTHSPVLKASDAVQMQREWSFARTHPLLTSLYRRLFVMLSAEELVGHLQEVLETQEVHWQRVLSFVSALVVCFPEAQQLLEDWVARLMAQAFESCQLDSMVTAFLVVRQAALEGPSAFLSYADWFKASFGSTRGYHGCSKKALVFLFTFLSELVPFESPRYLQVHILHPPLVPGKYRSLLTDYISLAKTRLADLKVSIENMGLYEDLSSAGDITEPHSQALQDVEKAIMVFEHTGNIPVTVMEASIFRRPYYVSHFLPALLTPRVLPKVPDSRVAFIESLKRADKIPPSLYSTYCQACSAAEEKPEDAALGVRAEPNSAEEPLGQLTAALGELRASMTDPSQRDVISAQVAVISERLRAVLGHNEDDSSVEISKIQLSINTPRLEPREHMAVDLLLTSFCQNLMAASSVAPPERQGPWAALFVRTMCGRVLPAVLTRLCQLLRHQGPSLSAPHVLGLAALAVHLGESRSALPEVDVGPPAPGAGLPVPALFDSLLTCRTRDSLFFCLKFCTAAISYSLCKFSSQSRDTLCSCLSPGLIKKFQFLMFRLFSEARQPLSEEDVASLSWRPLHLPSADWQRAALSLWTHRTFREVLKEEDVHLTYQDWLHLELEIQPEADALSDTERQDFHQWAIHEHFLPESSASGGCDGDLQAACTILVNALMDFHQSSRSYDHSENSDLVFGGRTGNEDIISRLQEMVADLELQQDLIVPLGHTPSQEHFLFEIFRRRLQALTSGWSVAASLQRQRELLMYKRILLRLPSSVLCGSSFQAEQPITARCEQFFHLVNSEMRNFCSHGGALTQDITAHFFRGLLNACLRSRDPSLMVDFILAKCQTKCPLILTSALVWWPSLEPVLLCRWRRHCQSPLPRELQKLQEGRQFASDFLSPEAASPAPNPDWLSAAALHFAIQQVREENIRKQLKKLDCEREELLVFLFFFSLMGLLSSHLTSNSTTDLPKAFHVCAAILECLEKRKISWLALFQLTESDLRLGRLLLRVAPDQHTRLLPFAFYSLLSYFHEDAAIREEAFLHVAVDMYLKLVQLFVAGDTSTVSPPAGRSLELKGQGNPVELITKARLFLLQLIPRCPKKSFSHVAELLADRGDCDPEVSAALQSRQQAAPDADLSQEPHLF

Variants of: B1
Settings: with lztr1_human LZTR1, Q8N653

effect of a mutation on the interaction | Variant
with no effect | F133L

Variants of: B2
Settings: with tet5c_human TENT5C

effect of a mutation on the interaction | Variant
with no effect | Y87C

Variants of: B2
Settings: with tet5c_human TENT5C
Remark: another data set of the same source

effect of a mutation on the interaction | Variant
with no effect | F102C

Variants of: B2
Settings: with tet5c_human TENT5C
Remark: another data set of the same source

effect of a mutation on the interaction | Variant
with no effect | F133V

Variants of: B2
Settings: with tet5c_human TENT5C
Remark: another data set of the same source

effect of a mutation on the interaction | Variant
with no effect | F133L

Variants of: B3
Settings: with emsy_human EMSY

effect of a mutation on the interaction | Variant
with no effect | F133L

Variants of: B3
Settings: with emsy_human EMSY
Remark: another data set of the same source

effect of a mutation on the interaction | Variant
with no effect | F133V

Variants of: B3
Settings: with emsy_human EMSY
Remark: another data set of the same source

effect of a mutation on the interaction | Variant
with no effect | Y87C

Variants of: B3
Settings: with emsy_human EMSY
Remark: another data set of the same source

effect of a mutation on the interaction | Variant
with no effect | F102C

Variants of: B4
Settings: with fanca_human FANCA

effect of a mutation on the interaction | Variant
with no effect | Y87C

Variants of: B4
Settings: with fanca_human FANCA
Remark: another data set of the same source

effect of a mutation on the interaction | Variant
with no effect | F133L

Variants of: B4
Settings: with fanca_human FANCA
Remark: another data set of the same source

effect of a mutation on the interaction | Variant
with no effect | F102C
